The values below come from publication PMC4701441, “Directed Evolution of a Highly Specific FN3 Monobody to the SH3 Domain of Human Lyn Tyrosine Kinase” (PLoS ONE, 2016).

For the assay, the target named is T1, GST-Lyn SH3 domain (human, UniProt P07948 63-123).
T1 construct: SH3 domain of human Lyn tyrosine kinase; Plasmid derived from pGEX-2T; also called GST fusion to the SH3 domain of Lyn
As to the kind of experiment: ELISA; competition ELBA: GST-Lyn SH3 domain coated at 5 μg/mL, peptide at 0.1 μM to 40 μM added along with TA8-alkaline phosphatase fusion for 1 h. Conditions: both partners purified. On the technique in general: ELISA stands for enzyme-linked immunosorbent assay.

T1 sequence (P07948 63-123): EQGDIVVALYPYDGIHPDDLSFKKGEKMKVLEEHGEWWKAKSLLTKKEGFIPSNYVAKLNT

GMPTPPLPPRPANLGERQA: the binding result is recorded as “binds”.
